Tests used:
[1] = Measurement of the secondary structure of each peptide by a CD spectrum; format: physicochemical; details: peptide 100 μM, 20 mM Tris-HCl buffer (pH 7.4); for secondary structure by CD spectrum: CD at 25° C.; for CD spectral change with time: incubated at ordinary temperatures
Protocol: The peptide (10-4F), (10-3L), (10-3F), (10-3A), Aβ (14-23) or Aβ (10-35) synthesized in Example 1, which was contained alone in an aqueous solution, was evaluated for its ability to form amyloid fibrils. The secondary structure was examined using a CD spectrum, and the ability to form amyloid fibrils was evaluated with dye thioflavin T (ThT) binding specifically to amyloid fibrils to emit fluorescence, under a transmission electron microscope (TEM).
Solutions of the respective synthesized peptides, 2 mM, in trifluoroethanol (TFE) were prepared and used as stock solutions respectively. Each stock solution was diluted to a final peptide concentration of 100 μM with 20 mM Tris-HCl buffer (pH 7.4), then incubated at ordinary temperatures, and measured for CD spectrum at 25° C. (FIG. 1).

[2] = Evaluation, with ThT, of the ability of the artificial peptide used alone to form amyloid fibrils; details: peptide 200 μM alone; for time required to finish formation of fibrils at 40° C. compared with ordinary temperatures: incubation at 40° C.; for time having elapsed until the increase in fluorescent intensity was finished: incubation at room temperature
Protocol: The peptide (10-4F), (10-3L), (10-3F), (10-3A), Aβ (14-23) or Aβ (10-35) synthesized in Example 1, which was contained alone in an aqueous solution, was evaluated for its ability to form amyloid fibrils. The secondary structure was examined using a CD spectrum, and the ability to form amyloid fibrils was evaluated with dye thioflavin T (ThT) binding specifically to amyloid fibrils to emit fluorescence, under a transmission electron microscope (TEM). The ability of each artificial peptide obtained in Example 1 to form amyloid fibrils when used alone was evaluated using ThT. Starting solution used: [peptide]=2 mM solution in TFE Concentration: [peptide]=200 μM in 20 mM Tris-HCl buffer (pH 7.4) Temperature: room temperature or 40° C. Concentrations: [peptide]=5 μM, [ThT]=6 μM (20 mM Tris-HCl buffer (pH 7.4)) Temperature: room temperature Stirring conditions: The whole volume of the reaction mixture was sufficiently stirred with a Pasteur pipette before sampling, and then sufficiently stirred in a cell with a Pasteur pipette. Excitation wavelength: 440 nm, detection wavelength: 482 nm. The formation of fibrils was slow at ordinary temperatures to make it difficult to monitor the change with time, so the ability of each artificial peptide used alone to form fibrils was then evaluated at an elevated temperature of 40° C. estimated to accelerate formation of fibrils.

[3] = target: T1, Aβ (10-35) formed into amyloid fibrils (nucleus) (Homo sapiens, UniProt P05067); assay: Amplification, with the artificial peptide, of formation of fibrils of Aβ (10-35) formed into fibrils, monitored with ThT; format: biochemical; details: peptide 200 μM, Aβ (10-35) nucleus 10 μM, room temperature; for increase in ThT fluorescent intensity in the presence of the nucleus: after 1 day
T1 construct: peptide [Aβ (10-35)] consisting of 10 to 35 residues of amyloid β peptide; made in house; host or cells: chemical synthesis (Fmoc solid phase method)
Protocol: The amplification of formation of fibrils of Aβ (10-35) formed into amyloid fibrils was attempted by using each of the artificial peptides synthesized in Example 1. A small amount of Aβ (10-35) previously formed into fibrils under the condition in (1-2) above was added to a solution of the artificial peptide, and the amplification of formation of fibrils was monitored with ThT.
Starting solution used: [peptide]=2 mM solution in TFE
Concentrations: [peptide]=200 μM, [Aβ (10-35) (nucleus)]=10 μM • (20 mM Tris-HCl buffer (pH 7.4))
(§1) Aβ (10-35) (nucleus) was homogenized by sonication for 1 hour before dilution.
Temperature: room temperature
Concentration: [peptide]=5 μM, [ThT]=6 μM • (20 mM Tris-HCl buffer (pH 7.4))
Stirring conditions: The whole volume of the reaction mixture was sufficiently stirred with a Pasteur pipette before sampling, and then sufficiently stirred in a cell with a Pasteur pipette.
Excitation wavelength: 440 nm, detection wavelength: 482 nm.

[4] = target: T1, Aβ (10-35) formed into amyloid fibrils (nucleus); assay: Amplification of fibrils of Aβ (10-35) formed into amyloid fibrils, measurement using a plate reader; format: biochemical; details: high to low; for rank of difference in fluorescence intensity between nucleus added and not added (ability to amplify fibrils): after completion of fluorescent intensity change; for rank of increase in fluorescent intensity among peptides to which the nucleus had been added: with Aβ (10-35) nucleus
Protocol: A test for the amplification of fibrils of Aβ (10-35) formed into amyloid fibrils by using the artificial peptide of the present invention in Example 2 was attempted using a plate reader.
Starting solution used: [peptide]=5 mM solution in DMSO
Concentrations: [peptide]=20 μM, [Aβ (10-35) (nucleus)]=2.5 μM • (20 mM Tris-HCl buffer (pH 7.4))
as §1
Concentrations: [peptide]=18 μM, [ThT]=25 μM • (20 mM Tris-HCl buffer (pH 7.4))
Stirring conditions: The whole volume of the reaction mixture was stirred 3 times for 2 seconds with a vortex and then (100 μl×2) was stirred with a micropipette in a well before measurement.
Excitation wavelength: 440 nm, detection wavelength: 490 nm.

Substance	secondary structure by CD spectrum [1]	CD spectral change with time [1]	time required to finish formation of fibrils at 40° C. compared with ordinary temperatures [2]	time having elapsed until the increase in fluorescent intensity was finished [2]	fluorescent intensity with the nucleus relative to that in the absence of the nucleus [3]	increase in ThT fluorescent intensity in the presence of the nucleus [3]	rank of difference in fluorescence intensity between nucleus added and not added (ability to amplify fibrils) [4]	rank of increase in fluorescent intensity among peptides to which the nucleus had been added [4]
Ac-Lys-Gln-Lys-Leu-Leu-Leu-Leu-Leu-Glu-Glu-NH2 (Ac-KQKLLLLLEE-NH2) [10-3L]	spectra unique to β-sheet structure	increased signals with time	significantly shortened	3 days	twice as high	significant increase in fluorescent intensity	highest	order of 10-4F, 10-3L, 10-3F, and 10-3A
Ac-Lys-Gln-Lys-Leu-Leu-Leu-Phe-Leu-Glu-Glu-NH2 (Ac-KQKLLLFLEE-NH2) [10-4F]	spectra unique to β-sheet structure	increased signals with time	hardly changed	about 6 days		significant increase in fluorescent intensity	order of 10-3L, 10-4F, 10-3F, and 10-3A	largest increase in fluorescent intensity
Aβ (10-35): peptide consisting of 10 to 35 residues of amyloid β peptide, used as the nucleus of amyloid fibril (YEVHHQKLVFFAEDVGSNKGAIIGLM; Amyloid-beta protein 42; UniProt P05067 681-706, looked up, fragment) [reference compound]	spectra unique to β-sheet structure	increased signals with time						
Aβ (14-23): peptide consisting of 14 to 23 residues of amyloid β peptide (HQKLVFFAED; Amyloid-beta protein 42; UniProt P05067 685-694, looked up, fragment)	spectra unique to random coil state	no spectral change with time	significantly shortened					
Ac-Lys-Gln-Lys-Leu-Leu-Phe-Leu-Leu-Glu-Glu-NH2 (Ac-KQKLLFLLEE-NH2) [10-3F]	spectra unique to β-sheet structure	increased signals with time	hardly changed	about 6 days		no increase in fluorescent intensity	order of 10-3L, 10-4F, 10-3F, and 10-3A	order of 10-4F, 10-3L, 10-3F, and 10-3A
Ac-Lys-Gln-Lys-Leu-Leu-Ala-Leu-Leu-Glu-Glu-NH2 (Ac-KQKLLALLEE-NH2) [10-3A]	spectra unique to random coil state	no spectral change with time				no increase in fluorescent intensity	order of 10-3L, 10-4F, 10-3F, and 10-3A	order of 10-4F, 10-3L, 10-3F, and 10-3A
